Test results taken from patent publication US20250049939A1 (TUBULIS, published 2025).

Key:
[1] = target: T1, human wildtype FLT3 expressed on Ba/F3 cells (human, UniProt P36888 27-993); assay: flow cytometry, cell surface binding to Ba/F3 cells expressing human FLT3 (results of FIG. 14 summarized)
T1 construct: also called hFLT3 wt; Ba/F3-FLT3
T1 sequence: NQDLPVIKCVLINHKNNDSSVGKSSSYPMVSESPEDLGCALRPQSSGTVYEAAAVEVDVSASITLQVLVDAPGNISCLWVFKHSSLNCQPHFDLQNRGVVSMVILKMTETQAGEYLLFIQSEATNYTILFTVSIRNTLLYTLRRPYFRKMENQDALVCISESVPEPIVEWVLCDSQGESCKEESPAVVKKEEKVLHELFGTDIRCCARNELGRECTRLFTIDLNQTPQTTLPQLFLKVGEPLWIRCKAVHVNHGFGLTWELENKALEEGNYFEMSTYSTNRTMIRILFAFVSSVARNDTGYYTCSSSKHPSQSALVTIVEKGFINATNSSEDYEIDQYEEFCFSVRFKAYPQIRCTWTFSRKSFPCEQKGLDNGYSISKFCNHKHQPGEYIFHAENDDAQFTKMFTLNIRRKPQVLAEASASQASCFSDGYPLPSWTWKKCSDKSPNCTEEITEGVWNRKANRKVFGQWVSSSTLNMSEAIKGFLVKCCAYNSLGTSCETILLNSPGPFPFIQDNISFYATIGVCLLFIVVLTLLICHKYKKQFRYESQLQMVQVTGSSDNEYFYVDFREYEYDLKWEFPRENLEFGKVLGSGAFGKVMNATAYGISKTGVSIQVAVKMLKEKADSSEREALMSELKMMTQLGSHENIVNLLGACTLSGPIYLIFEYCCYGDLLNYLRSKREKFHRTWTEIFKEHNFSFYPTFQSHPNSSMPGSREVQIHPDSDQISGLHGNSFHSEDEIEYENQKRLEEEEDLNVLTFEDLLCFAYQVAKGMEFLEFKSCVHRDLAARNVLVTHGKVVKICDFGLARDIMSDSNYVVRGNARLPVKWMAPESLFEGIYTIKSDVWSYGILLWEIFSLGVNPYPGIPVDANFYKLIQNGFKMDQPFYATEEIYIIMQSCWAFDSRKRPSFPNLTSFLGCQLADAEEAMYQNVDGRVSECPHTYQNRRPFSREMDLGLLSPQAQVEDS

PDGFRα on Ba/F3 cells = target: T2, PDGFRα on Ba/F3 cells (UniProt P16234 24-1089, limits assumed); assay: flow cytometry, cell surface binding to Ba/F3 pMIY cells expressing PDGFRα, MFI ratio normalized to IgG1, mean ± s.d. of n=3
T2 construct: whole, on cells
T2 sequence (P16234 24-1089 limits assumed): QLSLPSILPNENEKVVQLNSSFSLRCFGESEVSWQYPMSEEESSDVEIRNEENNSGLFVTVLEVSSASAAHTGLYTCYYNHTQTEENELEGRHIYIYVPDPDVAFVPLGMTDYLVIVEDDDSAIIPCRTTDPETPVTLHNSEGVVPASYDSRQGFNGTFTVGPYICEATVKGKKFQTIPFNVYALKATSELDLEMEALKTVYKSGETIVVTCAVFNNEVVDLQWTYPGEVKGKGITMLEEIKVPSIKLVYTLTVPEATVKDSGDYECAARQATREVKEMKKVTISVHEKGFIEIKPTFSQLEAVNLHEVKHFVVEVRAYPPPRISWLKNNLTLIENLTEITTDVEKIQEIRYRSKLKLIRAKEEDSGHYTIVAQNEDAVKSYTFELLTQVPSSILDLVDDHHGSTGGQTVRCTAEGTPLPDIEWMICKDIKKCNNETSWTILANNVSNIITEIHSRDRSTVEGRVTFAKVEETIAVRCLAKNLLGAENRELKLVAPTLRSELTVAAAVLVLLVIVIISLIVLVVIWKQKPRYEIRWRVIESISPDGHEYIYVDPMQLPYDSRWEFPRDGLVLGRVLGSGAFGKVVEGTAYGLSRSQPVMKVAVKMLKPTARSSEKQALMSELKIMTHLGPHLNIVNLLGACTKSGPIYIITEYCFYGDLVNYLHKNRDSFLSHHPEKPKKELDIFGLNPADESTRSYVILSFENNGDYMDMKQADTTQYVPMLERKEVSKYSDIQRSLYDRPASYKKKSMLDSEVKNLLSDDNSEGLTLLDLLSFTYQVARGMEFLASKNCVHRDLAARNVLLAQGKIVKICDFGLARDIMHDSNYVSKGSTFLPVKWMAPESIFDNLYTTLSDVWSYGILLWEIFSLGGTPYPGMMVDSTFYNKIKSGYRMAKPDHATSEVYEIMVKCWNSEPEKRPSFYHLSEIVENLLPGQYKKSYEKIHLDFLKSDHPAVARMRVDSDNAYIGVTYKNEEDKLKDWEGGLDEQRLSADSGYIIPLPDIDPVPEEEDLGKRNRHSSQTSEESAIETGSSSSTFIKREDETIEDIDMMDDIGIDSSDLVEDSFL

VEGFR-2 on Ba/F3 cells = target: T3, VEGFR-2 on Ba/F3 cells (UniProt P35968 20-1356, limits assumed); assay: flow cytometry, cell surface binding to Ba/F3 pMIY cells expressing VEGFR, MFI ratio normalized to IgG1, mean ± s.d. of n=3
T3 construct: whole, on cells
T3 sequence (P35968 20-1356 limits assumed): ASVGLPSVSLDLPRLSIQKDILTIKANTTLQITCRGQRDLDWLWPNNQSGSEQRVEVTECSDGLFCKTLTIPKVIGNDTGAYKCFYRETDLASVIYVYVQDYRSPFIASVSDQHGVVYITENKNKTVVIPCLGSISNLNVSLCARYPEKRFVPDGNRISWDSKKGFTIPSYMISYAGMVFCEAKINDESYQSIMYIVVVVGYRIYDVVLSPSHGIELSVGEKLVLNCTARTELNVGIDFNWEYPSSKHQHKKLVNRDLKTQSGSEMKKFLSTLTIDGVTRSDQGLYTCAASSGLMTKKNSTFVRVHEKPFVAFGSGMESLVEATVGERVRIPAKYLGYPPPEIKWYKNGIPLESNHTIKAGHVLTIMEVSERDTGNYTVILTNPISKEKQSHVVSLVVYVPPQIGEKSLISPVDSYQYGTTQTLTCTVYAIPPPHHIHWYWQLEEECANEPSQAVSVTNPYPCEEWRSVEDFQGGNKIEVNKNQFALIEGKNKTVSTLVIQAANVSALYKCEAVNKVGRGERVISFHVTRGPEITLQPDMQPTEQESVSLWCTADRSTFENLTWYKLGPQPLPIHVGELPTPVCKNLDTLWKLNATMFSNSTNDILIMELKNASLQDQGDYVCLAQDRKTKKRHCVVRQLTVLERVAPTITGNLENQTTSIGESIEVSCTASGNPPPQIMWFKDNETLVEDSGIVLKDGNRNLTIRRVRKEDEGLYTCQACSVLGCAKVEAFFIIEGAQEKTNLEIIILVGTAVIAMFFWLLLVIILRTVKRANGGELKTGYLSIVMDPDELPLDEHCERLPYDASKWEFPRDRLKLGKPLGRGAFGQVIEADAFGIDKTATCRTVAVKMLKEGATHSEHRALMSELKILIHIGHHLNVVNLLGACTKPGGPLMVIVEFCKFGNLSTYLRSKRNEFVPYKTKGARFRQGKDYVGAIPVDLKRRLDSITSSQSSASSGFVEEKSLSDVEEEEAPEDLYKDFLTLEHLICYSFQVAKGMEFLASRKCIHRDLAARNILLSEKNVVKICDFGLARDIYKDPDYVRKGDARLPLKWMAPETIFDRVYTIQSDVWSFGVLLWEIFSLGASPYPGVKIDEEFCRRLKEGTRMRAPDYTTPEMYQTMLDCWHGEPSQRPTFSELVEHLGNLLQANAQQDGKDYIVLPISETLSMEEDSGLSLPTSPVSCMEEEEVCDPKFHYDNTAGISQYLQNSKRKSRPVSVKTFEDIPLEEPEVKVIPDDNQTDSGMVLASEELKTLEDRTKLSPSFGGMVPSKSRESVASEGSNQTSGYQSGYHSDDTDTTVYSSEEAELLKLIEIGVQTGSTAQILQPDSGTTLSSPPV

[2] = target: T4, human CD64 (high affinity Fc receptor, FCGR1) on cells (human, UniProt P12314 16-374); assay: flow cytometry, cell surface binding to Ba/F3-pMIY cells expressing CD64, specific MFI, mean ± s.d. of n=3
T4 construct: whole, on cells; also called hCD64; human FCGR1
T4 sequence (P12314 16-374): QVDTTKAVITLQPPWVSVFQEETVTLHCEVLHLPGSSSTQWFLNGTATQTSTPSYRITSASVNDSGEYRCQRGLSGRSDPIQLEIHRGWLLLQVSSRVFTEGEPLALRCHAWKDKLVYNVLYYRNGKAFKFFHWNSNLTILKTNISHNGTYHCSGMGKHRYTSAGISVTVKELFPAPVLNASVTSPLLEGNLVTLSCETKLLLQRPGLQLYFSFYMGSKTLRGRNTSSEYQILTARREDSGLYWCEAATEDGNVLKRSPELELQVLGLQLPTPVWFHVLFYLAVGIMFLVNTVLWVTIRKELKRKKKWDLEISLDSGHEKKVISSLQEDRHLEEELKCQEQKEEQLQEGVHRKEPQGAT

[3] = target: T5, murine FLT3 expressed on Ba/F3 cells (mouse, UniProt Q00342 28-1000); assay: flow cytometry, cell surface binding to Ba/F3 pMIY cells expressing mFLT3wt, MFI ratio normalized to IgG1, mean ± s.d. of n=3
T5 construct: whole, on cells; also called mFLT3 wt; mFLT3
T5 sequence (looked up): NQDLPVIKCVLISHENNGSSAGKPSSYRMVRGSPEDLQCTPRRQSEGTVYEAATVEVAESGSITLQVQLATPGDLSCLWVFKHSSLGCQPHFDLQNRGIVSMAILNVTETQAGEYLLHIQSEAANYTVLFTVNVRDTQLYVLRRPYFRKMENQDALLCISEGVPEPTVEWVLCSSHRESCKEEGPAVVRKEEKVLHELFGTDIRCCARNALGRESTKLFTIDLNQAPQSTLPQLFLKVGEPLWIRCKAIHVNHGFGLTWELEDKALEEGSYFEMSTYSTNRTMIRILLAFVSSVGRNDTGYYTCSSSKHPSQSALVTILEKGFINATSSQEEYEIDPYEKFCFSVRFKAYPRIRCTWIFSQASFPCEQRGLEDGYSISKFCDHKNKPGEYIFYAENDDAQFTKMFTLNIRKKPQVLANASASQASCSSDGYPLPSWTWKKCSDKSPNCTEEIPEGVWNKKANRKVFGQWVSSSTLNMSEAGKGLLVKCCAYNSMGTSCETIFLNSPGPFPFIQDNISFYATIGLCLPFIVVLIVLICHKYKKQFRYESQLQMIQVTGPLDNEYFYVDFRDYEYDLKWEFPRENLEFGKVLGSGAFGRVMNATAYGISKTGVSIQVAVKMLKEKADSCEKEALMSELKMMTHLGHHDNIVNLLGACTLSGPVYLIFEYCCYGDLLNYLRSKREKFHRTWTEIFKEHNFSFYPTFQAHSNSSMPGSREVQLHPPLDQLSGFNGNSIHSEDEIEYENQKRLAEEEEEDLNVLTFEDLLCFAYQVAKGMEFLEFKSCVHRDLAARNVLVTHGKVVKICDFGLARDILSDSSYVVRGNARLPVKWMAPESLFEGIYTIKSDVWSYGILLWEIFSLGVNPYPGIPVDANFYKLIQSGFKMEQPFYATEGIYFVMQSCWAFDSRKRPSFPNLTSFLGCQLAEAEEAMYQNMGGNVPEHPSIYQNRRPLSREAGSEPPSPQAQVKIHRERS

CSF1R on Ba/F3 cells = target: T6, CSF1R on Ba/F3 cells (UniProt P07333 20-972, limits assumed); assay: flow cytometry, cell surface binding to Ba/F3 pMIY cells expressing CSF-1R, MFI ratio normalized to IgG1, mean ± s.d. of n=3
T6 construct: whole, on cells
T6 sequence (P07333 20-972 limits assumed): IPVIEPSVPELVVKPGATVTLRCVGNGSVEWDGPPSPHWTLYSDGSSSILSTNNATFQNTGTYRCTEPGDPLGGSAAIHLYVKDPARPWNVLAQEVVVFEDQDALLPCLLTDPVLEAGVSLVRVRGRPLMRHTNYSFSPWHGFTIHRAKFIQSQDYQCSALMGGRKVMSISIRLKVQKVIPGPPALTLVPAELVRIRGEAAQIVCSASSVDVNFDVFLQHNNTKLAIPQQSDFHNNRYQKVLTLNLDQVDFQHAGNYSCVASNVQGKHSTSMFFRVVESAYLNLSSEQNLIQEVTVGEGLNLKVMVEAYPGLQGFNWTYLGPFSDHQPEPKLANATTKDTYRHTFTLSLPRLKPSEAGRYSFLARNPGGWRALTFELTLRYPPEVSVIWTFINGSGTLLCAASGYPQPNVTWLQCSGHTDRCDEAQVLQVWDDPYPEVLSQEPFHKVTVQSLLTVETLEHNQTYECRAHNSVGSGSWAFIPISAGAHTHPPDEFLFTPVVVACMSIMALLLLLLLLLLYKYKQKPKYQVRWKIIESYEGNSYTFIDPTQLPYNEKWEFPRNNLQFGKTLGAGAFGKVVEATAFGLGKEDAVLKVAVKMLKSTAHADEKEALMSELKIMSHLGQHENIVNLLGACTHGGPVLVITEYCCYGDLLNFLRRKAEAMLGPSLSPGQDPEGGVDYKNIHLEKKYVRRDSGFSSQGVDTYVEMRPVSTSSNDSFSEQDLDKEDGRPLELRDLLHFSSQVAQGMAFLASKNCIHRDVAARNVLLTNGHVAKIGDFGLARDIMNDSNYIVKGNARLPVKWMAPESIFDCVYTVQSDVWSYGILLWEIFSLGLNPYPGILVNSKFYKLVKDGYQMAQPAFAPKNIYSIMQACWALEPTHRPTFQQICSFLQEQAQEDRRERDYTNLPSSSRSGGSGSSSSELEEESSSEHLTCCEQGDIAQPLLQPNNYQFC

B1: Humanized clone 3 of 20D9 (VH3 + VK1) (antibody, human IgG1, kappa)
heavy: not shown
light: DIQMTQSPSVLSASVGDRVTINCRASQNINKELNWYQQKLGEAPKLLIYNTNNLQSGVPSRFSGSGSGTDYTLTISSLQPEDVATYFCFQHKSWPLTFGSGTKLEIKRTVAAPSVFIFPPSDEQLKSGTASVVCLLNNFYPREAKVQWKVDNALQSGNSQESVTEQDSKDSTYSLSSTLTLSKADYEKHKVYACEVTHQGLSSPVTKSFNRGEC
notes: also called candidate #3; #3 mab
B1 was tested, and the “Binding to human FLT3 (MFI ratio to IgG1 control)” value [1] was 95.3, the binding result (PDGFRα on Ba/F3 cells) was “no binding” and the binding result (VEGFR-2 on Ba/F3 cells) was “no binding”. B1: binds [2]; no binding [3]; no binding (CSF1R on Ba/F3 cells).
